Numbering of substitutions follows the chain as printed. Names may count otherwise. “And” between values parts separate entries of the source, which are not always exact repeats. Identical values can stand only once.
B1: KB001 mouse Fab VL S53D (Fab, V domains shown)
VH: EVQLKQSGPGLVAPSQSLSITCTVSGFSLSIYSVHWVRQPPGKGLEWLGMIWGGGSSDYNSALKSRLSISKDNSKSQVFLKMNSLQTDDTAMYYCARNGNFYAMDYWGQGTSVTVSS
VL: QIVLTQSPAIMSASLGERVTMTCTASSSVSSSFLHWYQQKPGSSPQLWIYSTDNLASGVPARFSGSGSGTSYSLTISSMEAEDAATYYCHQYHHSPYIYTFGGGTKLEIK
B2: KB001 mouse Fab VL N54I (Fab, V domains shown)
VH: B1 VH
VL: B1 VL with D53S, N54I
B3: KB001 mouse Fab VL N54D (Fab, V domains shown)
VH: B1 VH
VL: B1 VL with D53S, N54D
B4: KB001 mouse Fab VL L55Q (Fab, V domains shown)
VH: B1 VH
VL: B1 VL with D53S, L55Q
B5: KB001 mouse Fab VL S53E (Fab, V domains shown)
VH: B1 VH
VL: B1 VL with D53E
B6: KB001 mouse Fab VL L55S (Fab, V domains shown)
VH: B1 VH
VL: B1 VL with D53S, L55S
B7: KB001 mouse Fab VH S61D (Fab, V domains shown)
VH: B1 VH with S61D
VL: B1 VL with D53S
B8: KB001 mouse Fab VH S61Q (Fab, V domains shown)
VH: B1 VH with S61Q
VL: B1 VL with D53S
B9: KB001 mouse Fab VL N54E (Fab, V domains shown)
VH: B1 VH
VL: B1 VL with D53S, N54E
B10: KB001 mouse Fab VL N54L (Fab, V domains shown)
VH: B1 VH
VL: B1 VL with D53S, N54L
B11: KB001 mouse Fab VL L55H (Fab, V domains shown)
VH: B1 VH
VL: B1 VL with D53S, L55H
B12: KB001 mouse Fab VL S53W (Fab, V domains shown)
VH: B1 VH
VL: B1 VL with D53W
B13: KB001 mouse Fab VL S53R (Fab, V domains shown)
VH: B1 VH
VL: B1 VL with D53R
B14: KB001 mouse Fab VH S30N (Fab, V domains shown)
VH: B1 VH with S30N
VL: B1 VL with D53S
B15: KB001 mouse Fab VL N54K (Fab, V domains shown)
VH: B1 VH
VL: B1 VL with D53S, N54K
B16: KB001 mouse Fab VL S53C (Fab, V domains shown)
VH: B1 VH
VL: B1 VL with D53C
B17: KB001 mouse Fab VL L55K (Fab, V domains shown)
VH: B1 VH
VL: B1 VL with D53S, L55K
B18: KB001 mouse Fab VL S53Y (Fab, V domains shown)
VH: B1 VH
VL: B1 VL with D53Y
B19: KB001 mouse Fab VH S30E (Fab, V domains shown)
VH: B1 VH with S30E
VL: B1 VL with D53S
B20: KB001 mouse Fab VL N54F (Fab, V domains shown)
VH: B1 VH
VL: B1 VL with D53S, N54F
B21: KB001 mouse Fab VL L55T (Fab, V domains shown)
VH: B1 VH
VL: B1 VL with D53S, L55T
B22: KB001 mouse Fab VL N54A (Fab, V domains shown)
VH: B1 VH
VL: B1 VL with D53S, N54A
B23: KB001 mouse Fab VL N54W (Fab, V domains shown)
VH: B1 VH
VL: B1 VL with D53S, N54W
B24: KB001 mouse Fab VH S28E (Fab, V domains shown)
VH: B1 VH with S28E
VL: B1 VL with D53S
B25: KB001 mouse Fab VL L55V (Fab, V domains shown)
VH: B1 VH
VL: B1 VL with D53S, L55V
B26: KB001 mouse Fab VH S28P (Fab, V domains shown)
VH: B1 VH with S28P
VL: B1 VL with D53S
B27: KB001 mouse Fab VL S53V (Fab, V domains shown)
VH: B1 VH
VL: B1 VL with D53V
B28: KB001 mouse Fab VL S53L (Fab, V domains shown)
VH: B1 VH
VL: B1 VL with D53L
B29: KB001 mouse Fab VL S53A (Fab, V domains shown)
VH: B1 VH
VL: B1 VL with D53A

Target: HRgpA-6H (Porphyromonas gingivalis) (UniProt P28784)
Chain of UniProt P28784 (P28784 228-860 limits assumed): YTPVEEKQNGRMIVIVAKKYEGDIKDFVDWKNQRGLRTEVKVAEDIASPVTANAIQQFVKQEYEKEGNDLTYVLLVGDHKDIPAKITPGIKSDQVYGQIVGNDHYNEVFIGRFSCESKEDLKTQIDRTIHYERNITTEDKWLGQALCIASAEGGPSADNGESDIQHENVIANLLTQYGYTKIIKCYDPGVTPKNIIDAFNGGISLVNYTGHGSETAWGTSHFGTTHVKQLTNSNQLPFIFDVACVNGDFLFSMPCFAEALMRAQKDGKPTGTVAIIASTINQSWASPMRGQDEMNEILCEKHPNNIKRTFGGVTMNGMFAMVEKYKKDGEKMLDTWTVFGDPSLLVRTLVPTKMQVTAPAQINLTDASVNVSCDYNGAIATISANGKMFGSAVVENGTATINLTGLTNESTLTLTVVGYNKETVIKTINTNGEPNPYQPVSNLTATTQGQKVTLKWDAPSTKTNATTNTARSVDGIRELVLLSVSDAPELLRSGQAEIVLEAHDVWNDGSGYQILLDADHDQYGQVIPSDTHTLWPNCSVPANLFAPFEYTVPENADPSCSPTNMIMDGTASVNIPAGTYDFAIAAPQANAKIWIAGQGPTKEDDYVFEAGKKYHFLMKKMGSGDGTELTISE
Test: ELISA, coated HRgpA-6H

| Binder | OD450 nm | Ratio OD(Variant)/OD(WT) |
| --- | --- | --- |
| B1 | 0.775 | 0.984 |
| B2 | 0.755 and 0.772 and 0.754 | 0.964 and 0.985 and 0.962 |
| B3 | 0.725 | 0.925 |
| B4 | 0.711 and 0.692 and 0.684 | 0.907 and 0.883 and 0.873 |
| B5 | 0.766 | 0.973 |
| B6 | 0.672 | 0.858 |
| B7 |  | 1.14 and 1.11 (2×) and 0.956 |
| B8 | 0.634 | 1.28 |
| B9 | 0.744 and 0.74 | 0.95 and 0.944 |
| B10 | 0.774 | 0.988 |
| B11 | 0.695 and 0.731 | 0.887 and 0.933 |
| B12 | 0.727 | 0.923 |
| B13 | 0.637 | 0.809 |
| B14 | 0.565 and 0.56 | 1.12 and 1.11 |
| B15 | 0.727 | 0.928 |
| B16 | 0.697 | 0.885 |
| B17 | 0.769 | 0.981 |
| B18 | 0.776 and 0.781 | 0.985 and 0.992 |
| B19 | 0.567 | 1.12 |
| B20 | 0.765 | 0.976 |
| B21 | 0.727 | 0.928 |
| B22 | 0.776 | 0.99 |
| B23 | 0.646 | 0.825 |
| B24 | 0.561 and 0.551 and 0.494 | 1.04 and 1.02 and 0.915 |
| B25 | 0.706 | 0.901 |
| B26 | 0.545 and 0.452 and 0.514 | 1.01 and 0.837 and 0.952 |
| B27 | 0.702 | 0.891 |
| B28 | 0.639 and 0.636 | 0.811 and 0.808 |
| B29 | 0.784 | 0.996 |
